Source: patent publication US20240398896A1, “INFLAMMASOME INHIBITION” (National University of Singapore, priority 2021, published 2024)

Experiments:
[1] = system: bat ASC; test: Co-immunoprecipitation of ASC2-His with bat ASC-Flag from HEK293T cells; type: binding; details: 0.25 μg bat or hupa4 ASC2 vs 3 μg human ASC2 transfected, FIG. 26B
Description: Co-immunoprecipitation. HEK293T cells were transfected in 6-well plate with plasmids encoding His-tagged empty vector (His alone), bat ASC2, human ASC2, and Hupa4 ASC2 along with Flag-tagged human or bat ASC. 3 μg human ASC2, in contrast to 0.25 μg control, bat or hupa4 ASC2, were transfected to normalize the expression. At 48 h post-transfection, cells were lysed in IP lysis buffer (Pierce) according to manufacturer's protocol and centrifuged at 500 g for 10 minutes at 4° C. The supernatants were subjected to immunoprecipitation by incubation for 16 hours at 4° C. with anti-Flag (Sigma) incubated magnetic beads, followed by washing three times with TBS containing 0.05% Tween 20 and once with purified water. Bound proteins were separated by 15% SDS-PAGE, followed by immunoblotting analysis with the indicated antibodies.

[2] = molecular target: NLRP1 inflammasome (Homo sapiens); test: Talabostat-induced inflammasome activation in N/TERT-1 keratinocytes stably expressing ASC2-mCitrine; details: N/TERT-1, talabostat 0, 20, 200 μM, 24 h; FIG. 25B
Sequence of NLRP1 inflammasome (Homo sapiens) (Q9ULZ3 whole entry): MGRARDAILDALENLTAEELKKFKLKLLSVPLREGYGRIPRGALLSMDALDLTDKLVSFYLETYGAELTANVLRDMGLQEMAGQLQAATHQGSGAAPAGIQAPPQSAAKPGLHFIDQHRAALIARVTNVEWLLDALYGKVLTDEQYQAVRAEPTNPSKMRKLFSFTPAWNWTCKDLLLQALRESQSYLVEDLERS
Description: (§4) Immortalized N/TERT-1 keratinocyte were cultured in KSFM media (Gibco) supplemented with 30 g/ml BPE, 0.1 ng/ml rEGF, and 0.3 mM calcium chloride.
(§5) GP2-293 cells stably expressing gag and pol proteins, were co-transfected with pVSV-G envelope vector and mCitrine-only empty vector, bat or human ASC2-mCitirine pQCXIH vector for 48 h. Supernatants containing retroviruses were collected, centrifuged at 500 g for 10 min. N/TERT-1 cells were transduced with low MOI of retrovirus for 24 h to obtain a single viral copy per transduced cell. 72 h post-transduction, cells were selected by 20 μg/mL Hygromycin B antibiotic for at least 1 week to ensure stable expression. The stable cells were FACS-sorted for equal fluorescent intensity to ensure the same expression levels across cell lines.
(§6) Inflammasome activation assay. N/TERT-1 cells in KSFM without antibiotics were seeded at 1.8×10^5/mL into 96-well plates overnight. Cells were treated with various concentrations (0, 20, 200 μM) of talabostat dissolved in DMSO for 24 h. DMSO concentration is controlled at 0.5% for all treated wells.

[3] = molecular target: NLRP1 inflammasome (Homo sapiens, UniProt Q9ULZ3); test: as above
Sequence of NLRP1 inflammasome (Q9ULZ3 whole entry): as above
Description: as §4, §5, §6

[4] = molecular target: AIM2 inflammasome (Homo sapiens, UniProt Q9ULZ3); test: Inflammasome activation in LPS-primed THP-1 macrophages stably expressing ASC2, transfected with poly(dA:dT); type: cell-based; parameters: endogenous in cells; host or cells: THP-1 macrophages (PMA-differentiated, LPS-primed, poly(dA:dT)-transfected); details: LPS 3 h, poly(dA:dT) 4 h
Sequence of AIM2 inflammasome (Q9ULZ3 whole entry): as above
Excerpt: (§1) Generation of THP-1 and IMACs stable cells. […] Single cell clones were generated for THP-1 cells stably expressing ASC2-LSSmOrange.
(§2) Inflammasome activation assays.

[5] = system: peritonitis induced by ASC specks; test: Peritonitis induced by ASC specks in bat ASC2/rtTA mice; type: in vivo, mouse; details: bat ASC2/rtTA vs WT mice, oral Dox 7 days, ASC-mPlum specks i.p., 4 h
[6] = system: Pteropine orthoreovirus 3 (PRV3M); type: cell-based, mouse; details: bat ASC2/rtTA vs WT BMDMs
[7] = molecular target: T1, NLRP3 inflammasome (Homo sapiens, UniProt Q9ULZ3); test: ASC speck and filament formation in HEK293T cells reconstituted with human NLRP3-mCitrine and human ASC-mPlum (ImageStream, confocal); type: cell-based; parameters: expressed in transfected cells; host or cells: HEK293T
T1 sequence (Q9ULZ3 whole entry): as above
Description: as §2
(§3) ImageStream imaging flow cytometry. […] Nuclei were stained with DAPI.
Confocal imaging. […] At 48 h post-transfection, cells were fixed with 10% formalin for 15 min at room temperature. DAPI (1:2000 dilution) was used for nuclear staining. All samples were then mounted and examined using the Leica TCS SP8 confocal microscope.

[8] = system: H1N1 IAV, strain A/NWS/33; type: in vivo, mouse
[9] = molecular target: T1, NLRP3 inflammasome; test: Inflammasome activation in LPS-primed THP-1 macrophages stably expressing ASC2, stimulated with nigericin; type: cell-based; parameters: endogenous in cells; host or cells: THP-1 macrophages (PMA-differentiated, LPS-primed); details: THP-1 macrophages, ASC2-LSSmOrange, LPS 3 h
Excerpt: as §1, §2
ImageStream imaging flow cytometry.

[10] = system: bat NLRP3 inflammasome; test: ASC speck formation in HEK293T cells reconstituted with bat NLRP3-mCitrine and bat ASC-mPlum (ImageStream); type: cell-based, Pteropus alecto; details: bat NLRP3-mCitrine, bat ASC-mPlum, ASC2-LSSmOrange overexpressed, FIG. 3B
Excerpt: as §2, §3

[11] = molecular target: T2, NLRP3 inflammasome (Mus musculus, UniProt Q9EPB4); test: Inflammasome activation in LPS-primed BMDMs of WT or bat ASC2/rtTA mice stimulated with nigericin; details: Dox-induced bat ASC2, LPS 3 h
T2 sequence (Q9EPB4 1-193): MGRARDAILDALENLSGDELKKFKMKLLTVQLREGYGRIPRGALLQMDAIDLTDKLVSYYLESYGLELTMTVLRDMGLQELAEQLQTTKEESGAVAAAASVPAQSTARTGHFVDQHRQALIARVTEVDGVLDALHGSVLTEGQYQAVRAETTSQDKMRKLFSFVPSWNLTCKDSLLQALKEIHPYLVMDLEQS

[12] = molecular target: T2, NLRP3 inflammasome; test: Inflammasome activation in LPS-primed BMDMs of bat ASC2/rtTA mice stimulated with MSU crystals; type: cell-based; parameters: endogenous in cells; host or cells: BMDMs of C57BL/6 wild-type and bat ASC2/rtTA mice; details: Dox, LPS 3 h, MSU 16 h, FIG. 6D, 6E
Excerpt: as §2

[13] = system: IAV; type: cell-based, mouse
[14] = molecular target: T1, NLRP3 inflammasome; test: Inflammasome activation in LPS-primed THP-1 macrophages stably expressing ASC2, stimulated with MSU crystals; type: cell-based; parameters: endogenous in cells; host or cells: THP-1 macrophages (PMA-differentiated, LPS-primed); details: LPS 3 h, MSU crystals 4 h
Excerpt: as §1, §2

[15] = system: peritonitis induced by MSU crystals; test: Peritonitis induced by MSU crystals in bat ASC2/rtTA mice; type: in vivo, mouse; details: bat ASC2/rtTA vs WT mice, oral Dox 7 days, 200 μg MSU crystals i.p., 4 h

B1: bat ASC2: ASC2 (PYRIN-only protein) of the bat Pteropus alecto, SEQ ID NO:11; expressed from vectors or as Dox-inducible transgene (protein)
chain: MGKKRDAILEALENLTADELKKFKLKLGAAPLRQGFRNIPRGALGPLDAVDLTDKLVAFYCEDYGAELTAVVLRDIGMQEEAERLQGVA
Interaction with bat ASC (co-IP) [1]: interact with bat ASC more strongly than human ASC2
Cell death (LDH release) [2]: reduces cell death
IL-1β secretion ([3]; N/TERT-1, talabostat 0, 20, 200 μM, 24 h, FIG. 25C): reduces IL-1β secretion
Potency in inhibiting NLRP1 inflammasomes compared with human ASC2 ([3]; human skin cells (N/TERT-1)): significantly more potent
Cell death (LDH release) ([4]; FIG. 3G): inhibited
IL-1β secretion ([4]; FIG. 3H): inhibited
Recruitment of neutrophils (peritoneal lavage) ([5]; FIG. 8E): suppressed
IL-1β release (peritoneal lavage) ([5]; FIG. 8F): suppressed
IL-1β secretion triggered by PRV3M ([6]; LPS 3 h, PRV3M MOI=5, 24 h, Dox, FIG. 10G): substantially inhibited
Viral load for PRV3M ([6]; MOI=5, 24 h, FIG. 10E): without affecting the viral load
ASC2 filament formation / distribution ([7]; HEK293T, ImageStream and confocal): formed fine and long filaments
Co-localization with human ASC ([7]; HEK293T, imaging, FIG. 3A): co-localization between bat ASC2 and human ASC
ASC speck formation (human NLRP3 inflammasome activation) ([7]; HEK293T, human NLRP3-mCitrine, human ASC-mPlum, 50 ng ASC2-LSSmOrange, 48 h post-transfection): suppressed the activation of human NLRP3
Potency in inhibiting human NLRP3 inflammasome compared with human ASC2 ([7]; expression normalized by gating equal signal intensity, FIG. 3C): significantly more potent
Level of IL-1β in lung tissue extracts ([8]; 3 dpi, bat ASC2/rtTA vs WT mice, FIG. 10B): significantly reduced
Lung viral titres ([8]; 3 dpi, bat ASC2/rtTA vs WT mice, FIG. 10C): no significant different
Mortality ([8]; bat ASC2/rtTA mice, IAV 0.5×10^5 pfu intranasal one day after Dox, 14 days post-infection, 100% of WT mice succumbed): 50%
Pyroptotic cell death (LDH release) ([9]; nigericin 2 h, compared with human ASC2, FIG. 3E): significantly more downstream inhibition
Secretion of IL-1β in the supernatants ([9]; nigericin 2 h, compared with human ASC2, FIG. 3F): significantly more downstream inhibition
Induction of ASC specks ([9]; nigericin, FIG. 4B, 4C): inhibited the induction of ASC specks more potently than human ASC2
ASC speck formation (bat NLRP3 inflammasome activation) [10]: inhibited bat NLRP3 inflammasome
ASC speck formation ([11]; nigericin 30 min, FIG. 6B, 6C): reduction of ASC speck formation
Pyroptotic cell death (LDH release) ([11]; nigericin 1 h, FIG. 5B): reduction
IL-1β secretion ([11]; nigericin 1 h, FIG. 5C): reduction
Activation of NLRP3 inflammasome (LDH release, IL-1β) [12]: suppressed the activation
In vitro IL-1β response to IAV infection [13]: significantly lower
Viral titres in supernatants [13]: no obvious difference
Cell death (LDH release) ([14]; FIG. 4D): inhibited
IL-1β secretion ([14]; FIG. 4E): inhibited
Recruitment of neutrophils and inflammatory monocytes (peritoneal lavage) ([15]; FIG. 8B, 8C): significantly reduced
IL-1β release in the peritoneal lavage ([15]; FIG. 8D): decreased
